Numbering of substitutions follows the chain as printed.
Tests used:
[1] = tested on: 12 predominant HLA II molecules; assay: HLA II/peptide binding assays, count over the panel; design: species or system human; conditions: relative activity of less than 100 characterizes the active peptides
Text: The assays for binding to HLA II molecules are competition binding assays with immunoenzymatic visualization, as described in U.S. Pat. No. 6,649,166 and PCT international application WO 03/040299, respectively, for the HLA-DR and HLA-DP4 molecules. The implementation of these assays for measuring the binding activity of peptides derived from various antigens is illustrated in U.S. Pat. No. 6,649,166 and PCT international applications WO 02/090382, WO 03/040299 and WO 2004/014936.
The sensitivity of each test is reflected by the IC50 values observed with the nonbiotinylated peptides which correspond to the tracers. […] The results are expressed in the form of relative activity (ratio of the IC50 of the competitor peptide to that of the reference peptide (nonbiotinylated peptide which corresponds to the tracer)). A relative activity of less than 100 characterizes the active peptides.

[2] = molecular target: HLA-DRB5 (DRB5*0101) (Homo sapiens, UniProt P01903+Q30154); assay: HLA II/peptide competition binding assay, DRB5; conditions: ratio of IC50 of competitor peptide to IC50 of reference peptide; mean of at least two independent experiments; less than 100 = active
[3] = molecular target: HLA-DR11 (DRB1*1101) (Homo sapiens, UniProt P01903+P01911, A100R/A169T/A87E/I96F/K41T/L162R/M171V/P40S/Q125H/Q178H/Q39Y/Q99D/R42S/S66Y/T262R/V115G/W38E); type: binding; conditions: ratio of IC50 of competitor peptide to IC50 of reference peptide; mean of at least two independent experiments; less than 100 = active
[4] = molecular target: HLA-DR3 (DRB1*0301) (Homo sapiens, UniProt P01903+P01911, A100K/A102G/A103R/A169T/F55Y/I96L/K41T/L162R/M171V/P40S/Q125H/Q178H/Q39Y/R42S/S66N/T106N/T262R/W38E/Y61H); assay: HLA II/peptide competition binding assay, DR3; conditions: ratio of IC50 of competitor peptide to IC50 of reference peptide; mean of at least two independent experiments; less than 100 = active
[5] = molecular target: T1, HLA-DP402 (DPB1*0402) (Homo sapiens, UniProt P04440+P20036, A65V/A84D/A85E/L207M); type: binding; conditions: ratio of IC50 of competitor peptide to IC50 of reference peptide; mean of at least two independent experiments; less than 100 = active
T1 sequence (P04440 30-258 A65V/A84D/A85E): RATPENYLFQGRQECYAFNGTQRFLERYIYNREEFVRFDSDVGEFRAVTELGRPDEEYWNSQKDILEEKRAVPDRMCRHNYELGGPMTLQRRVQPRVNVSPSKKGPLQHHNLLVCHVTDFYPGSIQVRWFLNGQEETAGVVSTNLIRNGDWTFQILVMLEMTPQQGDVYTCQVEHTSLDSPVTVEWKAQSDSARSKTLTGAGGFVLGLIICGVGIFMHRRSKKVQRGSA
T1 sequence (P20036 29-260): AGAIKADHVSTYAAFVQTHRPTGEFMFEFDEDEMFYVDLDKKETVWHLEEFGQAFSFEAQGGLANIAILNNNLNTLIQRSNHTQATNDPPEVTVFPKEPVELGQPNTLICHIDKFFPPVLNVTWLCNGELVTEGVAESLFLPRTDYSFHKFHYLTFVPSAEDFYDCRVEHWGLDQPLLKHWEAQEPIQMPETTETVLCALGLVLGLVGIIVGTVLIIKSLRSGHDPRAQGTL

[6] = molecular target: HLA-DRB4 (DRB4*0101) (Homo sapiens, UniProt P01903+P13762, G164S); assay: HLA II/peptide competition binding assay, DRB4; conditions: ratio of IC50 of competitor peptide to IC50 of reference peptide; mean of at least two independent experiments; less than 100 = active
[7] = molecular target: HLA-DR7 (DRB1*0701) (Homo sapiens, UniProt P01903+P01911, A100R/A102G/A103Q/D57E/D86V/E43K/F76Y/K127E/L162R/M171V/P40G/Q125H/Q99D/R33Q/R42Y/R54Q/S133A/S66F/T210M/V115G/Y107V/Y59L/Y89S); assay: HLA II/peptide competition binding assay, DR7; conditions: ratio of IC50 of competitor peptide to IC50 of reference peptide; mean of at least two independent experiments; less than 100 = active
[8] = molecular target: HLA-DR13 (DRB1*1301) (Homo sapiens, UniProt P01903+P01911, A100E/A169T/K41T/L162R/M171V/P40S/Q125H/Q178H/Q39Y/Q99D/R42S/S66N/T262R/W38E/Y61H); assay: HLA II/peptide competition binding assay, DR13; conditions: ratio of IC50 of competitor peptide to IC50 of reference peptide; mean of at least two independent experiments; less than 100 = active
[9] = molecular target: HLA-DR15 (DRB1*1501) (Homo sapiens, UniProt P01903+P01911); assay: HLA II/peptide competition binding assay, DR15; conditions: ratio of IC50 of competitor peptide to IC50 of reference peptide; mean of at least two independent experiments; less than 100 = active
[10] = molecular target: T2, HLA-DP401 (DPB1*0401) (Homo sapiens, UniProt P04440+P20036); type: binding; conditions: ratio of IC50 of competitor peptide to IC50 of reference peptide; mean of at least two independent experiments; less than 100 = active
T2 sequence (P04440 30-258): T1 sequence (P04440 30-258 A65V/A84D/A85E) with V36A, D55A, E56A
T2 sequence (P20036 29-260): T1 sequence (P20036 29-260)

[11] = molecular target: HLA-DRB3 (DRB3*0101) (Homo sapiens, UniProt P01903+P79483); assay: HLA II/peptide competition binding assay, DRB3; conditions: ratio of IC50 of competitor peptide to IC50 of reference peptide; mean of at least two independent experiments; less than 100 = active
[12] = molecular target: HLA-DR4 (DRB1*0401) (Homo sapiens, UniProt P01903+P01911, A100K/A169T/F76Y/I96L/K127E/L162R/M171V/N62H/P40V/Q125Y/R42H/S133A/S149N/S66Y/V115G/V209L/W38E); assay: HLA II/peptide competition binding assay, DR4; conditions: ratio of IC50 of competitor peptide to IC50 of reference peptide; mean of at least two independent experiments; less than 100 = active
[13] = molecular target: HLA-DR1 (DRB1*0101) (Homo sapiens, UniProt P01903+P01911, A100R/D57E/F55L/F60I/F76Y/I96L/L162R/M171V/P40L/Q125E/R42F/V115G/Y59C); type: binding; conditions: ratio of IC50 of competitor peptide to IC50 of reference peptide; mean of at least two independent experiments; less than 100 = active

Row | Substance | Total (number of the 12 predominant HLA II molecules bound) [1] | Relative binding activity, DRB5 [2] | Relative binding activity, DR11 [3] | Relative binding activity, DR3 [4] | Relative binding activity, DP402 [5] | Relative binding activity, DRB4 [6] | Relative binding activity, DR7 [7] | Relative binding activity, DR13 [8] | Relative binding activity, DR15 [9] | Relative binding activity, DP401 [10] | Relative binding activity, DRB3 [11] | Relative binding activity, DR4 [12] | Relative binding activity, DR1 [13]
1 | G T L K K A R Y N A Q C Q E T (GTLKKARYNAQCQET) [MDK 105-119] | 1 | >2 100 | 1 008 | >419 | >976 | >28 868 | >2 479 | >2 537 | 225 | >879 | >485 |  | 
2 | C N W K K E F G A D C K Y K F (CNWKKEFGADCKYKF) [MDK 74-88] | 1 |  | 1 231 |  | >976 | >28 868 | >2 479 | >2 537 | >529 | >879 |  | >1 812 | 
3 | K E F G A D C K Y K F E N W G (KEFGADCKYKFENWG) [MDK 78-92] |  |  |  |  |  | >28 868 | >2 479 | >2 537 | 216 |  |  |  | 299
4 | Q T Q R I R C R V P C N W K K (QTQRIRCRVPCNWKK) [MDK 64-78] | 1 |  |  | >419 | >976 | 1 155 | 2 066 | >2 537 | >529 | >879 | >485 |  | 246
5 | A E W A W G P C T P S S K D C (AEWAWGPCTPSSKDC) [MDK 38-52] | 0 | >2 100 |  | >419 |  | >28 868 | >2 479 | >2 537 | >529 | >879 | >485 | 1 859 | 1 305
